Results on one substance are retold here after US20160136234A1.

Among the targets are CLK3 (h) (human) (UniProt P49761); Tie2 (h) (human) (UniProt Q02763); PKBγ (h) (human) (UniProt Q9Y243); EGFR(L861Q) (h) (human) (UniProt P00533); Ron (h) (human) (UniProt Q04912); PRAK (h) (human) (UniProt Q8IW41); Fer (h) (human) (UniProt P16591); MRCKβ (h) (human) (UniProt Q9Y5S2); Fgr (h) (human) (UniProt P09769); STK33 (h) (human) (UniProt Q9BYT3); Abl (h) (human) (UniProt P00519); cKit (h) (human) (UniProt P10721); PKCτ (h) (human).

Common to all, as to test: cell-based or functional assay
The target of a further test is T1, Itk (h) (human) (UniProt Q08881).
T1 sequence (looked up): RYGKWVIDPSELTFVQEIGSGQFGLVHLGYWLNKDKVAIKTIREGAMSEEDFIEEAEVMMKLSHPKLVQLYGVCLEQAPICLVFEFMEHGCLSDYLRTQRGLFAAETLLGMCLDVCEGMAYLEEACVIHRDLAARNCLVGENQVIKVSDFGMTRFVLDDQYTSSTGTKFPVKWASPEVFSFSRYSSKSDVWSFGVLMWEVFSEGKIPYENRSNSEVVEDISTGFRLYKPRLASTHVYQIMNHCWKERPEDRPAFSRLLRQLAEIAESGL

A further test addresses T2, PKG1β (h) (human) (UniProt Q13976).
T2 sequence (looked up): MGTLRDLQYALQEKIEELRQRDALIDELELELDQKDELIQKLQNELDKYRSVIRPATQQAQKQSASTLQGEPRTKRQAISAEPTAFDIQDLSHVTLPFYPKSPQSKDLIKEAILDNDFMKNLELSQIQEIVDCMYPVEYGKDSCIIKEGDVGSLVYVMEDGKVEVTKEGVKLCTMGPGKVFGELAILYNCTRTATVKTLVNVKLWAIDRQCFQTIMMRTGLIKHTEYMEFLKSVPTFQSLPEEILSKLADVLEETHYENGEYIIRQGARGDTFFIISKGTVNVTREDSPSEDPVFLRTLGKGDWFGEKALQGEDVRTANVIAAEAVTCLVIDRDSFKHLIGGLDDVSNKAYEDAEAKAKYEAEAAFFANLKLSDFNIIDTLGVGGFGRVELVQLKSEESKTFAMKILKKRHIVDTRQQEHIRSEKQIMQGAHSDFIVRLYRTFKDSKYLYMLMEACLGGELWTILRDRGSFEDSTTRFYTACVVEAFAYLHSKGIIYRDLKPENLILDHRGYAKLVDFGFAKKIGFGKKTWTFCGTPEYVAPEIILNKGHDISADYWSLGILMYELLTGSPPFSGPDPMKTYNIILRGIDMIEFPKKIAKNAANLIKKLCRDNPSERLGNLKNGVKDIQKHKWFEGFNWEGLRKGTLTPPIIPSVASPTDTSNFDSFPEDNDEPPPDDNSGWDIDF

A further test has as its target T3, EphA8 (h) (human) (UniProt P29322).
T3 sequence (looked up): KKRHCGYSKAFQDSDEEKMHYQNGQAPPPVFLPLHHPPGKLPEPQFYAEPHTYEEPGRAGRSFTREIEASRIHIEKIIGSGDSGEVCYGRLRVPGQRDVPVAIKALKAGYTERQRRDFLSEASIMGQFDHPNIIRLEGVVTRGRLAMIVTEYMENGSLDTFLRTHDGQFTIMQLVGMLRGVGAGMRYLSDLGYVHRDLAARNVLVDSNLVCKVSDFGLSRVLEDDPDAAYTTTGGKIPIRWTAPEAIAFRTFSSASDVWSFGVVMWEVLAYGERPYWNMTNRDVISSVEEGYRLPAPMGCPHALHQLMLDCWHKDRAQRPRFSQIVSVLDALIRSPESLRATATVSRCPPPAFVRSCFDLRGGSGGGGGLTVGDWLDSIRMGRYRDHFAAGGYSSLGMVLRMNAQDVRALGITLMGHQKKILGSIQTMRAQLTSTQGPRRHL

Another test concerns the target T4, Ret(V804M) (h) (human) (UniProt P07949).
T4 sequence (looked up): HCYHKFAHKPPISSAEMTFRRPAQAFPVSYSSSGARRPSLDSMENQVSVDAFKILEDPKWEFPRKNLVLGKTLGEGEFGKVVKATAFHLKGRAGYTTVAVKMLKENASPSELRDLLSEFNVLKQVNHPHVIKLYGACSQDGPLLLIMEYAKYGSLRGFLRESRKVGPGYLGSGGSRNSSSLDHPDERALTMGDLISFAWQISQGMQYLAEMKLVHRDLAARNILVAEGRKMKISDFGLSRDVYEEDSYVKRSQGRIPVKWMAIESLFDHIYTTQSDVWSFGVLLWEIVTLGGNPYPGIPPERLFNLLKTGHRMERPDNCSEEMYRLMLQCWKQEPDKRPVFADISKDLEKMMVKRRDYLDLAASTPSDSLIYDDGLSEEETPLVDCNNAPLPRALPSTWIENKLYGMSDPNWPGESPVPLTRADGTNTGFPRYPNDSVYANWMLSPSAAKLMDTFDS

The target of test [1] is BDNF/NT-3 growth factors receptor (human) (UniProt Q16620).
The target in test [2] is Hck (h) activated (human) (UniProt P08631).

Chain of MRCKβ (h) (human) (Q9Y5S2 1-473 limits assumed): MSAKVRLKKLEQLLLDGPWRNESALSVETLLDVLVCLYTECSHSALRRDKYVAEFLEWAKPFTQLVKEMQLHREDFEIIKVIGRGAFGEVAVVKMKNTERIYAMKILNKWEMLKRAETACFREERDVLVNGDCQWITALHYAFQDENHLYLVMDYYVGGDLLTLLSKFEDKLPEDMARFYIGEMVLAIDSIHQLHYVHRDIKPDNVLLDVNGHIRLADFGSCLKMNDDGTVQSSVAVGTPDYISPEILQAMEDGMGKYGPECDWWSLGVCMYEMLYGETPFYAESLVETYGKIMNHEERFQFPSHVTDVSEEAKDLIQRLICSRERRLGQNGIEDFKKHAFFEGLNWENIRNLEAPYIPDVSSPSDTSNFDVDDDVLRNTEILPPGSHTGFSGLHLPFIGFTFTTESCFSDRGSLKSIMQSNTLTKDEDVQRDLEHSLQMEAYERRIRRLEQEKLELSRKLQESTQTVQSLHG
Chain of PRAK (h) (human) (Q8IW41 whole entry): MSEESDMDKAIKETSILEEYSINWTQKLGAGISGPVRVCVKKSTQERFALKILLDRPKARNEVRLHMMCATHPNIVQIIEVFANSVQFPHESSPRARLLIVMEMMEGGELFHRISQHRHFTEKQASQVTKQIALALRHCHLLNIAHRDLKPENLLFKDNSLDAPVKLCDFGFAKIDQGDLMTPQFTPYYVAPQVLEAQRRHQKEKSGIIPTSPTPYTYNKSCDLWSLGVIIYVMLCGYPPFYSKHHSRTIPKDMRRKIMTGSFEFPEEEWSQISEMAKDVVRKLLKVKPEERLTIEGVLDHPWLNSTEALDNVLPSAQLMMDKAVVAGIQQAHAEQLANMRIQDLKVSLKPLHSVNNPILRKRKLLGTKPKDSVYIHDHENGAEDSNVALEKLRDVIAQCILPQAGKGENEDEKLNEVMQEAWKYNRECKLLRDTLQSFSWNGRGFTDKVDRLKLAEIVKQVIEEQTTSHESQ
Chain of PKBγ (h) (human) (Q9Y243 whole entry): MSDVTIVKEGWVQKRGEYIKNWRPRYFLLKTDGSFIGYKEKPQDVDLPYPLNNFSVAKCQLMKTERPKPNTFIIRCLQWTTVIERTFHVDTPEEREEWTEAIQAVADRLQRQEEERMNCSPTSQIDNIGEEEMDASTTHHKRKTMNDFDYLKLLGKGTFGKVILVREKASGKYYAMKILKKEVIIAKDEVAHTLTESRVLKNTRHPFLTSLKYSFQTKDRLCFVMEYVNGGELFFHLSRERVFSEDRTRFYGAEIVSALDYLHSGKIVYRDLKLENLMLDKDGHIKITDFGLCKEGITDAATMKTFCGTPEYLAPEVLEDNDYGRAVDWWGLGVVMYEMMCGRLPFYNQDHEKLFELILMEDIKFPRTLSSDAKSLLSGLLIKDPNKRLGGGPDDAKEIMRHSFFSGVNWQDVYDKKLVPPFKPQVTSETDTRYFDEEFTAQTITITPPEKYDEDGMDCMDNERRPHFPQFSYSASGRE
Chain of Tie2 (h) (human) (Q02763 771-1124 limits assumed): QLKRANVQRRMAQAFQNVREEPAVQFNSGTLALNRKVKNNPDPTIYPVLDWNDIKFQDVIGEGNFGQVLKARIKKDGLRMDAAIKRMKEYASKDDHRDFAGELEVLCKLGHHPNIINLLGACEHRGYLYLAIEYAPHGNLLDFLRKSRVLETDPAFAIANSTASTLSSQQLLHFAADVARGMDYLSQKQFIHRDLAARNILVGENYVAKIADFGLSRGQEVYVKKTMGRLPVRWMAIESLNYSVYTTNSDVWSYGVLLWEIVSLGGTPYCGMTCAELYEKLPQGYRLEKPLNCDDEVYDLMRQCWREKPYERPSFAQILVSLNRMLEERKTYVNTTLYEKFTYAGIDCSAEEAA
Chain of Ron (h) (human) (Q04912 983-1400 limits assumed): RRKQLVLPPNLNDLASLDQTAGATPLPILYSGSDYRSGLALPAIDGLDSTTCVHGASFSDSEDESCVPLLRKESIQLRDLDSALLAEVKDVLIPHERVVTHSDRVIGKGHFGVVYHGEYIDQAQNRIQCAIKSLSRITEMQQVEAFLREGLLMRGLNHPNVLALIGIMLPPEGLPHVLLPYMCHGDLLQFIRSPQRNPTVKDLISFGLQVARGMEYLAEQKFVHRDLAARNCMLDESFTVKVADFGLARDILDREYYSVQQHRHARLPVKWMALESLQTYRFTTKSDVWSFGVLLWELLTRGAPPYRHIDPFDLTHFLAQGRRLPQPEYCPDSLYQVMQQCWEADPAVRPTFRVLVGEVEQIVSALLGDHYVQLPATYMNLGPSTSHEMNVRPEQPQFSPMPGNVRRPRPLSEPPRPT
Chain of cKit (h) (human) (P10721 544-976): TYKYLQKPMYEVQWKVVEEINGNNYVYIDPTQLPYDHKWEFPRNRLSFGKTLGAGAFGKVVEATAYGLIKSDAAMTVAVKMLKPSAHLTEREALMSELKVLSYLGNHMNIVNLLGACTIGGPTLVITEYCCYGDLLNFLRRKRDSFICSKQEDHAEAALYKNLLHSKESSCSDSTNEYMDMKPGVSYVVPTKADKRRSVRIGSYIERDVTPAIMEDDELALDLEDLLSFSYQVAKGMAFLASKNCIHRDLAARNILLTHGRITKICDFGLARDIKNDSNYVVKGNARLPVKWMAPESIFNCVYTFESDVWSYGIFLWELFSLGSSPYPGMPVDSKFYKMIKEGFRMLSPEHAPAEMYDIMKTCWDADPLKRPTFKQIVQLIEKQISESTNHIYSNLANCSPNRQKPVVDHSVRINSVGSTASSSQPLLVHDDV
Chain of Abl (h) (human) (P00519 27-1130 limits assumed): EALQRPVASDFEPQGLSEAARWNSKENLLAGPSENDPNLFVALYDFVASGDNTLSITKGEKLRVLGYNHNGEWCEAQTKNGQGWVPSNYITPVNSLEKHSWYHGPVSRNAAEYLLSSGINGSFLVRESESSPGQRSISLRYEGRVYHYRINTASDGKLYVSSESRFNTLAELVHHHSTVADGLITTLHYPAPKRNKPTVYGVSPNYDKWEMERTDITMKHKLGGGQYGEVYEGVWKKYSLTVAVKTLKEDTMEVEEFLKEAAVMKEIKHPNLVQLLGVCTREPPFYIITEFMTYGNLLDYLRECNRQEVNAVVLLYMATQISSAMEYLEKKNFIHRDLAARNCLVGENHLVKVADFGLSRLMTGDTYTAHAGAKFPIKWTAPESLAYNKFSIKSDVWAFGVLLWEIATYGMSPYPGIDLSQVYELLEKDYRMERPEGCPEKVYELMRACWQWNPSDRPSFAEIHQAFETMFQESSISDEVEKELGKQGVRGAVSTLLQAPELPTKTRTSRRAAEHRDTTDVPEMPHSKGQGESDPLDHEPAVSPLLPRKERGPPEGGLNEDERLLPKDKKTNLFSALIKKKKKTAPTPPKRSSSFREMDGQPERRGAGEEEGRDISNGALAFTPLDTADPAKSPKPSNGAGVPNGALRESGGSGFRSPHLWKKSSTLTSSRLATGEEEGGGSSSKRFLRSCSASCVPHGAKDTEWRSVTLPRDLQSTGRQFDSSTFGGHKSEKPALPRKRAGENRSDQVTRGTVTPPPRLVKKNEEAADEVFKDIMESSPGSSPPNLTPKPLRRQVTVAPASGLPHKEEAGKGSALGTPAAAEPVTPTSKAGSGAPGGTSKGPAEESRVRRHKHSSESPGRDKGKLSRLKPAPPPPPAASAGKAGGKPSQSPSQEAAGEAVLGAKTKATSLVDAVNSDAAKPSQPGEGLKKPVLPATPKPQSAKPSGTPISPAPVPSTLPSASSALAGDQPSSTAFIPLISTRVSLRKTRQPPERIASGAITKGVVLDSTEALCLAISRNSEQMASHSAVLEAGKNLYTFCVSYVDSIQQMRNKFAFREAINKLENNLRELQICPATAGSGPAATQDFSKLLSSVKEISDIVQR

Turning to MMI-0300 (peptide), the % activity at 100 µM turned out to be 61% in the test with CLK3 (h) (human); 26% with Tie2 (h) (human); 77% with Itk (h) (human); 20% with PKBγ (h) (human); 50% with PKG1β (h) (human); 25% with EGFR(L861Q) (h) (human). Further, the % activity at 100 µM in the test with Ron (h) (human) amounted to 93%; with PRAK (h) (human), 128%; in the test with EphA8 (h) (human), 93%; in the test with Fer (h) (human) it was 130%; in the test with Ret(V804M) (h) (human), 95%; in test [1], 5%. In addition, the % activity at 100 µM with MRCKβ (h) (human) came to 83%; in the test with Fgr (h) (human), 60%; in [2] it was 82%; with STK33 (h) (human), 45%; with Abl (h) (human), 69%; with cKit (h) (human), 53%. The % activity at 100 µM with PKCτ (h) (human) came out at 68%.
